Data reported in patent US20230257458A1 (SUNSHINE LAKE PHARMA, published 2023).
Substitutions are numbered along the chain they refer to.

T1: IL-11 protein (UniProt P20809 22-199, limits assumed)
T1 construct: also called IL-11 antigen
T1 sequence (looked up): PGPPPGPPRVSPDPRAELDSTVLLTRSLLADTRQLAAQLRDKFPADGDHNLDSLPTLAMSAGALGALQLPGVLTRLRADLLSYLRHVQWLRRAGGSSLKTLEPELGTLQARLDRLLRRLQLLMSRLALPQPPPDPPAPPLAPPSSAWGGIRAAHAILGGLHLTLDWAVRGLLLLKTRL

T2: IL-11-Fc protein (UniProt P20809 22-199, limits assumed)
T2 construct: also called IL-11 recombinant protein with Fc tag; not shown: Fc tag
T2 sequence (looked up): T1 sequence (looked up)

B1: 3-15D5-6A1 (antibody, human IgG1, kappa, V domains shown)
VH: EVKLLESGGGLVQPGGSLKLSCAASGFDFRRYWMSWVRQAPGKGLEWIGQINPDSSMINYTPSLKDKFIISRDNAKNTLYLQMSEVRSEDTALYYCATYGHHATDSWGQGTSVTVSS
VL: DIVLTQSPASLAVSLGQRATISCRASESVDSYGNSFMHWYQQKPGQPPKLLIYRASNLESGIPARFSGSGSRTDFTLTINPVEADDVATYYCQQSNEDPFTFGSGTKLEIKR
B2: 3-2B5-3D2 (antibody, human IgG1, kappa, V domains shown)
VH: QVQLKQSGPGLVLPSQSLSITCTVSGFSLTSYGVHWFRQSPGTGLEWLGVIWSGGITDYNATFIPRLSISKDNSKSQVFFKMNSLQADDTAIYYCARNFDGYYYSIDYWGQGTSVTVSS
VL: DIQMTQTTSSLSASLGDRVTISCRASQDISNSLNWYQQKPDGTVKLLIYYTSRLHSGVPSRFTGSGSGTDYSLTISNLEQEDIATYFCQQGNTLPLTFGAGTKLELKR
B3: 3-7C9-1A6 (antibody, human IgG1, kappa, V domains shown)
VH: QVQLKQSGPGLVQPSQSLSITCTVSGFSLTNYGVHWVRQSPGKGLEWLGAIWRGGSTDYNAAFMSRLSITKDNSKSQVFFKMNSLQPDDTAIYYCAKNLYGPAAMDYWGQGTSVTVSS
VL: DIQMNQSPSSLSASLGDTITITCHANQNIYVWLSWYQQKPGNIPKLLIYEASNLHTGVPSRFSGSGSGTGFTLTISSLQPEDIATYYCQQGQSYPYTFGGGTKLEIKR
B4: humanized antibody VH1+VL2, full-length (IgG format) (antibody, V domains shown)
VH: QVQLVQSGAEVKKPGASVKVSCKASDYTFTNYWLGWVRQAPGQGLEWMGHIYPGGGYTNYNEKFKGRVTMTRDTSTSTVYMELSSLRSEDTAVYYCARVRSGNDALDFWGQGTLVTVSS
VL: EIVLTQSPATLSLSPGERATLSCRASESVDEYGISFMNWYQQKPGQAPRLLIYSASNQGSGIPARFSGSGSGTDFTLTISSLEPEDFAVYFCQQSKEVPWTFGGGTKLEIK
B5: humanized antibody VH1+VL4, full-length (IgG format) (antibody, V domains shown)
VH: B4 VH
VL: B4 VL with Y40F, V89M
B6: humanized antibody VH1+VL3, full-length (IgG format) (antibody, V domains shown)
VH: B4 VH
VL: B4 VL with Y40F

The binders below were run against T1, IL-11 protein (assay: flow competition: IL-11 + antibody on IL-11R cells; lower = more blocking).
Source text: (§1) Cell lines with high secretion of specific antibody were selected for expanded culture and cryopreservation.
For B1, the “FITC Mean” value was 13600.
B2 was tested, and the “FITC Mean” value was 15300.
With B3 the “FITC Mean” value was 3150.

These binders were tested against T1, IL-11 protein (assay: ELISA, monoclonal hybridoma supernatant on IL-11).
Source text: as §1
B1 showed an OD450 of 1.51.
B2 showed an OD450 of 1.61.
B3 was tested, and the OD450 was 1.6.

Each binder was assayed against T2, IL-11-Fc protein (assay: flow competition: IL-11-Fc + antibody dilutions on membrane-IL-11R CHO cells).
Description: Then the plate was incubated with 1.5*10\hat{ }5 membrane-IL-11R CHO cells (100 ul/well) for 1 h at room temperature. After incubation, the plate was centrifuged at 1500 rpm for 5 min, washed three times with PBS, and 1:400 diluted flow secondary antibody Goat-anti-Fc-FITC (Abcam, ab98529) was added with 200 ul/well. Then, the plate was incubated at 4° C. for 1 h, centrifuged at 1500 rpm for 5 min, washed three times with PBS, resuspended cells in 180 ul PBS, and detected by flow cytometry.
B4 gave an EC50 of 11.6 µg/mL.
B5 showed an EC50 of 12.5 µg/mL.
With B6 the EC50 was 10.5 µg/mL.

Each binder was assayed against T1, IL-11 protein (assay: SPR (Biacore), IgG captured, IL-11 6.25-400 nM as analyte).
Description: The measure method included the steps of capturing the humanized antibody at a flow rate of 10 ul/min. […] Finally the chip was regenerated with 10 mM glycine buffer.
Binder B4 has a Kd of 12 nM, a koff of 0.000597 s⁻¹ and a kon of 49800 M⁻¹ s⁻¹.
B5 showed a Kd of 10 nM, a koff of 0.000545 s⁻¹ and a kon of 54300 M⁻¹ s⁻¹.
For B6, the Kd was 9.03 nM, the koff was 0.000474 s⁻¹ and the kon was 52600 M⁻¹ s⁻¹.
